{"source": "patent US20230027475A1", "about": "(ADMARE THERAPEUTICS SOCIETY, published 2023)", "key": {"[1]": {"target": "T1, Vaccinia virus B5 antigen (Wyeth VV sequence) expressed on HEK cells (Vaccinia virus, Wyeth strain, UniProt O57254 18-317)", "T1 construct": "also called HEK-B5; HEK-B5 (GFP)", "experiment": "immunohistochemistry (DAB) on histogel sections of HEK-B5 cells"}, "[2]": {"target": "T2, Vaccinia virus A56 antigen, Western Reserve strain VVdd (eGFP) (Vaccinia virus, Western Reserve strain, UniProt Q01218 17-314)", "T2 construct": "also called A56 on VVdd (eGFP)-infected cells", "experiment": "flow cytometry on VVdd (eGFP)-infected A549 cells"}, "[3]": {"target": "T3, A56.hFc (Vaccinia virus, Wyeth strain, UniProt P20978 17-279)", "T3 construct": "also called A56 human Fc fusion protein; A56 protein", "T3 chain": "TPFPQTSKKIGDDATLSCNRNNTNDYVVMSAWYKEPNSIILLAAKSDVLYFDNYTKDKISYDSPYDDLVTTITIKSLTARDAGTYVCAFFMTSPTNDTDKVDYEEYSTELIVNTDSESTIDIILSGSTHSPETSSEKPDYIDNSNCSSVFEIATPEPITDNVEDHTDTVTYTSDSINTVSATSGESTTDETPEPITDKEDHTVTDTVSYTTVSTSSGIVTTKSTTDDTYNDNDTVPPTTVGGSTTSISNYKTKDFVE", "experiment": "SPR Biacore T200, antibody amine-coupled, A56.hFc as analyte, 1:1 Langmuir fit"}, "[4]": {"target": "T3, A56.hFc", "experiment": "SPR Biacore T200, antibody amine-coupled, […]"}, "[5]": {"target": "T4, Vaccinia virus A56 antigen (Wyeth VV sequence) expressed on HEK cells (Vaccinia virus, Wyeth strain, UniProt P20978 17-315)", "T4 construct": "also called HEK-A56; HEK-A56 (GFP)", "T4 chain": "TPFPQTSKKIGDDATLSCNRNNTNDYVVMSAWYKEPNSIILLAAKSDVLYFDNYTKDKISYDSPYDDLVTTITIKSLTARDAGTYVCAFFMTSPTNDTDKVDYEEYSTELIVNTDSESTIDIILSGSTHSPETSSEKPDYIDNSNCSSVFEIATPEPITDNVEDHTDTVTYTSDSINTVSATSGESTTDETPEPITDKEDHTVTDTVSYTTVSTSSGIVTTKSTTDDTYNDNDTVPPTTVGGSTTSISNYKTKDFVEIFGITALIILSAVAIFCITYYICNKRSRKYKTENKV", "experiment": "flow cytometry on HEK-A56 (GFP) cells"}, "[6]": {"target": "T1, Vaccinia virus B5 antigen (Wyeth VV …)", "experiment": "flow cytometry on HEK-B5 (GFP) cells (panel 'HEKB5')"}, "[7]": {"target": "T2, Vaccinia virus A56 antigen, Western …", "experiment": "ELISA on plate-coated VVdd (eGFP) virus particles, HRP anti-hIgG Fc, lower panel"}, "[8]": {"target": "T4, Vaccinia virus A56 antigen (Wyeth VV …)", "experiment": "immunohistochemistry (DAB) on histogel sections of HEK-A56 cells"}, "[9]": {"target": "T5, Vaccinia virus B5 antigen, Western Reserve strain VVdd (eGFP) (Vaccinia virus, Western Reserve strain, UniProt Q01227 18-317)", "T5 construct": "also called B5 on VVdd (eGFP)-infected cells", "experiment": "flow cytometry on VVdd (eGFP)-infected A549 cells"}, "[10]": {"target": "T5, Vaccinia virus B5 antigen, Western …", "experiment": "flow cytometry on VVdd (eGFP)-infected HT29 cells"}, "[11]": {"target": "T6, B5.hFc (Vaccinia virus, Wyeth strain, UniProt O57254 18-279)", "T6 construct": "also called B5.hFc soluble antigen; B5 human Fc fusion protein", "experiment": "SPR Biacore T200, antibody amine-coupled, […]"}, "[12]": {"target": "T6, B5.hFc", "experiment": "SPR Biacore T200, antibody amine-coupled, B5.hFc as analyte, 1:1 Langmuir fit"}, "[13]": {"target": "T5, Vaccinia virus B5 antigen, Western …", "experiment": "flow cytometry on VVdd (eGFP)-infected A549 cells", "remark": "listed apart in the source"}, "[14]": {"target": "T1, Vaccinia virus B5 antigen (Wyeth VV …)", "experiment": "flow cytometry on HEK-B5 (GFP) cells"}, "[15]": {"target": "T5, Vaccinia virus B5 antigen, Western …", "experiment": "ELISA on plate-coated VVdd (eGFP) virus particles, HRP anti-hIgG Fc, upper panel"}, "[16]": {"target": "T2, Vaccinia virus A56 antigen, Western …"}}, "data": [{"binder": "A059 (antibody, V domains shown, also called A059 anti-A56, Rb/Mu IgG2a; A049/A059/A056) VH: QSLEESGGDLVKPGASLTLTCTASGIDFSDIYYISWVRQAPGKGLEWIACTYAGSSGSTYYATWAKGRFTISKASSTTVTLQMTSLTAADTATYFCARDRYPGTSGRVYGMDLWGPGTLVTVSS VL: VVMTQTPSSVSEPVGGTVTIKCQASQSISDLLSWYQQKPGQPPKLLIYSASTLASGVSSRFKGSGSGTEFTLTISDLECADAATYYCQCNYYSPTYGNGFGGGTEVVVK", "values": [{"measurement": "binding result", "setting": "[1]", "value": "no binding (tested: 10 ug/mL)"}, {"measurement": "EC50", "setting": "[2]", "value": 5, "unit": "nM"}]}, {"binder": "A049 (antibody, V domains shown, also called A049 (A56); A049 anti-A56 hIgG1) VH: QSLEESGGDLVKPGASLTLTCTASGIDFSDIYYISWVRQAPGKGLEWIACTYAGSSGSTYYATWAKGRFTISKASSTTVTLQMTSLTAADTATYFCARDRYPGTSGRVYGMDLWGPGTLVTVSS VL: VVMTQTPSSVSEPVGGTVTIKCQASQSISDLLSWYQQKPGQPPKLLIYSASTLASGVSSRFKGSGSGTEFTLTISDLECADAATYYCQCNYYSPTYGNGFGGGTEVVVK", "values": [{"measurement": "koff", "setting": "[3]", "value": "2.27e-05", "unit": "s⁻¹"}, {"measurement": "kon", "setting": "[3]", "value": 395000, "unit": "M⁻¹ s⁻¹"}, {"measurement": "Kd", "setting": "[4]", "value": "≤ 0.1", "unit": "nM"}, {"measurement": "EC50", "setting": "[2]", "value": 14, "unit": "nM"}]}, {"binder": "A056 (antibody, V domains shown, also called A056 anti-A56, Rb IgG; anti-A56-PE (A056, Rb IgG)) VH: QSLEESGGDLVKPGASLTLTCTASGIDFSDIYYISWVRQAPGKGLEWIACTYAGSSGSTYYATWAKGRFTISKASSTTVTLQMTSLTAADTATYFCARDRYPGTSGRVYGMDLWGPGTLVTVSS VL: VVMTQTPSSVSEPVGGTVTIKCQASQSISDLLSWYQQKPGQPPKLLIYSASTLASGVSSRFKGSGSGTEFTLTISDLECADAATYYCQCNYYSPTYGNGFGGGTEVVVK", "values": [{"measurement": "binding result", "setting": "[1]", "value": "no binding (tested: 10 ug/mL)"}, {"measurement": "EC50", "setting": "[2]", "value": 16, "unit": "nM"}]}, {"binder": "A047 (antibody, V domains shown, also called A047 (A56); anti-A56 rabbit antibody A047 hIgG1) VH: QEQLEESGGDLVKPEGSLTLTCTASGFSFSSSYWICWVRQAPGKGLEWIACIYAGSGGSTYYATWAKGRFTISKTSSTTVTLQMTSLTAADTASYFCVRAYSDRSGGYSFNLWGPGTLVTVSS VL: QVLTQTASPVSAAVGGTVTINCQASQSVDNNNYLAWYQQKPGQPPKQLIYSASSLASGVPSRFKGSGSGTQFTLTISDVQCDDAATYYCLGSYDCSDADCYAFGGGTEVVVK", "values": [{"measurement": "koff", "setting": "[3]", "value": "4.5e-05", "unit": "s⁻¹"}, {"measurement": "kon", "setting": "[3]", "value": 19200, "unit": "M⁻¹ s⁻¹"}, {"measurement": "binding result", "setting": "[5]", "value": "binds"}, {"measurement": "Kd", "setting": "[4]", "value": 2.34, "unit": "nM"}, {"measurement": "binding result", "setting": "[6]", "value": "no binding (tested: about 330 nM)"}, {"measurement": "binding result", "setting": "[7]", "value": "binds"}]}, {"binder": "A073 (antibody, V domains shown, also called A073 anti-B5, Rb IgG; anti-B5-PE (A073, Rb IgG)) VH: QEQLEESGGGLVKPEGSLTLTCTASGFSFSSSYYMCWVRQAPGRGLEWIACIYTSSGSAYYANWAKGRFTISRTSSTTVTLQMTRLTAADTATYFCVRNAVGSSYYLYLWGPGTLVTVSS VL: QVLTQTPSPVSAAVGGTVTISCQASQSVAGNNYLSWYQQKPGQPPNLLIYSVSTLASGVPSRFKGSGSGTQFTLTISDLECDDAATYYCQGYYNDGIWAFGGGTEVVVK", "values": [{"measurement": "binding result", "setting": "[8]", "value": "no binding (tested: 10 ug/mL)"}, {"measurement": "EC50", "setting": "[9]", "value": 3, "unit": "nM"}]}, {"binder": "A048 (antibody, V domains shown, also called anti-B5 A048 hIgG1) VH: QEQLEESGGGLVKPEGSLTLTCTASGFSFSSSYYMCWVRQAPGRGLEWIACIYTSSGSAYYANWAKGRFTISRTSSTTVTLQMTRLTAADTATYFCVRNAVGSSYYLYLWGPGTLVTVSS VL: QVLTQTPSPVSAAVGGTVTISCQASQSVAGNNYLSWYQQKPGQPPNLLIYSVSTLASGVPSRFKGSGSGTQFTLTISDLECDDAATYYCQGYYNDGIWAFGGGTEVVVK", "values": [{"measurement": "EC50", "setting": "[10]", "value": 1.1, "unit": "nM"}, {"measurement": "Kd", "setting": "[11]", "value": 0.745, "unit": "nM"}, {"measurement": "koff", "setting": "[12]", "value": "2.21e-05", "unit": "s⁻¹"}, {"measurement": "kon", "setting": "[12]", "value": 29700, "unit": "M⁻¹ s⁻¹"}, {"measurement": "EC50", "setting": "[9]", "value": 9, "unit": "nM"}, {"measurement": "EC50", "setting": "[13]", "value": 6, "unit": "nM"}]}, {"binder": "A058 (antibody, V domains shown, also called A058 anti-B5, Rb/Mu IgG2a; A048/A058/A073) VH: QEQLEESGGGLVKPEGSLTLTCTASGFSFSSSYYMCWVRQAPGRGLEWIACIYTSSGSAYYANWAKGRFTISRTSSTTVTLQMTRLTAADTATYFCVRNAVGSSYYLYLWGPGTLVTVSS VL: QVLTQTPSPVSAAVGGTVTISCQASQSVAGNNYLSWYQQKPGQPPNLLIYSVSTLASGVPSRFKGSGSGTQFTLTISDLECDDAATYYCQGYYNDGIWAFGGGTEVVVK", "values": [{"measurement": "binding result", "setting": "[8]", "value": "no binding (tested: 10 ug/mL)"}, {"measurement": "EC50", "setting": "[9]", "value": 3, "unit": "nM"}]}, {"binder": "A051 (antibody, V domains shown, also called anti-B5 rabbit antibody A051 hIgG1) VH: QEQVEESGGGLAKPGASLTLTCEASGFTLSSYWMCWVRQAPGKGLEWIACIYGGSSGSTYYSNWAKGRFTISKTSSTTVTLQMTSLTAADTATYFCARDGSTWDYFRLWGPGTLVTVSS VL: YDMTQTPSSVEAAVGGTVTIKCQASQSINTNYLSWYQQKPGQPPKLLIYQASTLESGVPSRFKGSGSGTEYTLTISDLECADAATYYCQGYYTVENIGNPFGGGTEVVVK", "values": [{"measurement": "binding result", "setting": "[14]", "value": "binds"}, {"measurement": "binding result", "setting": "[15]", "value": "binds"}]}, {"binder": "A050 (antibody, V domains shown, also called A050 (A56); anti-A56 rabbit antibody A050 hIgG1) VH: QSLEESGGDLVKPGASLTLTCTASGFSFSSSYWLCWARQAPGKGPEWIACIYNGDGSTHYASWAKGRFTISKSSSTTVTLQMTSLTAADTATYFCARDYTYNFYTYGFNLWGPGTLVTVSS VL: FELTQTPSSVEAAVGGTVTINCQASQSVNIWASWYQQKPGQPPKLLIYKASTLASGVPSRFKGSGSGTEFTLTISDLECADAATYYCQGGYPSSSSGWAFGGGTEVVVK", "values": [{"measurement": "koff", "setting": "[3]", "value": "5.07e-05", "unit": "s⁻¹"}, {"measurement": "kon", "setting": "[3]", "value": 99800, "unit": "M⁻¹ s⁻¹"}, {"measurement": "binding result", "setting": "[5]", "value": "binds"}, {"measurement": "Kd", "setting": "[4]", "value": 0.507, "unit": "nM"}, {"measurement": "binding result", "setting": "[6]", "value": "no binding (tested: about 330 nM)"}, {"measurement": "binding result", "setting": "[7]", "value": "binds"}]}, {"binder": "A054 (antibody, V domains shown, also called A054 (A56); anti-A56 rabbit antibody A054 hIgG1) VH: QEQVVESGGGLVKPGASLTLTCTASGFTLSSSYWICWVRQAPGKGPEWIACTYNGDGSTHYASWAKGRFTISKSSSTTVTLQMTSLTAADTATYFCARDYTDAFYTYGFNLWGPGTLVTVSS VL: DIVMTQTPASVSEPVGGTVTIKCQASQSTSSYLAWYQQKPGQPPKLLIYRASSLASGVPSRFKGSGSATEFTLTISDLECADAATYYCQTGFYGSSGHTFGGGTEVVVK", "values": [{"measurement": "koff", "setting": "[3]", "value": 0.0141, "unit": "s⁻¹"}, {"measurement": "kon", "setting": "[3]", "value": 925000, "unit": "M⁻¹ s⁻¹"}, {"measurement": "binding result", "setting": "[5]", "value": "binds"}, {"measurement": "Kd", "setting": "[4]", "value": 15.3, "unit": "nM"}, {"measurement": "binding result", "setting": "[6]", "value": "no binding (tested: about 330 nM)"}, {"measurement": "EC50 (read off the curve)", "setting": "[16]", "value": "~5", "unit": "nM"}]}]}
